These results are taken from patent US20220098305A1 (Hoffmann-La Roche, published 2022).

Where two headings read alike, the source gives them in different places.

Experiment [1] has as its target T1, human ICOS (human, UniProt Q9Y6W8 21-199).
T1 construct: The cell that carries it is named under assay; also called huICOS; CD278
T1 sequence: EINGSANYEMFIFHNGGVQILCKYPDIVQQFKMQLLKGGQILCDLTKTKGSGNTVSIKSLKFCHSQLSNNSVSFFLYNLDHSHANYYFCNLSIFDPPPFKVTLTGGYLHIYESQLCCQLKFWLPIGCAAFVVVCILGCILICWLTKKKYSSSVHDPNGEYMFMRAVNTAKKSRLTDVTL
The experiment is described as follows: flow cytometry, SR cells.

The target of experiment [2] is T1, human ICOS. Kind of experiment: flow cytometry on SR cells expressing human ICOS, geometric MFI.
Experiment [3] addresses T2, human FAP (human, UniProt Q12884 1-760).
T2 construct: also called hu FAP
The experiment is described as follows: flow cytometry, NIH/3T3-huFAP clone 19 cells.

Experiment [4] has as its target T2, human FAP. Kind of experiment: flow cytometry on NIH/3T3-huFAP clone 19 cells, geometric MFI.
Experiment [5] addresses T3, murine FAP (murine, UniProt P97321 26-761, limits assumed).
T3 construct: also called mouse FAP
The experiment is described as follows: flow cytometry, % positive cells; cells bearing murine FAP not given.

Experiment [6] deals with T2, human FAP. The experiment is described as follows: flow cytometry, NIH/3T3-huFAP clone 19 cells. How it is done:
(§1) Briefly, suspension cells were harvested, counted, checked for viability and re-suspended at 1 million cells per ml in FACS buffer (PBS with 0.1% BSA). […] The staining was fixed for 20 min at 4° C. in the dark, using 75 μl of 1% PFA in FACS buffer per well.
(§2) Fluorescence was analyzed by FACS using a FACS Fortessa (Software FACS Diva). Binding curves and EC₅₀ values were obtained using GraphPadPrism 7.
The source holds these as a separate data set.

For a further experiment, the target named is T4, cynomolgus ICOS (cynomolgus, UniProt Q9Y6W8 21-195 (human entry)).
T4 chain: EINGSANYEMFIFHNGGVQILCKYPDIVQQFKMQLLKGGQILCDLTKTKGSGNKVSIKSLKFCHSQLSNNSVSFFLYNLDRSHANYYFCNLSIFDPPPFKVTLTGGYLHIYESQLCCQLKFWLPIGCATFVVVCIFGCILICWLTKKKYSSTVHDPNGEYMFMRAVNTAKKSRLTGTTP
The experiment is described as follows: flow cytometry on cynomolgus PBMCs activated 48 h with CD3/CD28 beads, CD4+ subset, MFI.

Experiment [7] has as its target T1, human ICOS. Kind of experiment: flow cytometry, CHO cells expressing human ICOS. How it is done:
as §1, §2

Experiment [8] addresses T2, human FAP. Kind of experiment: flow cytometry on NIH/3T3-huFAP clone 19 cells, AF647-labelled anti-human Fc secondary antibody, MFI. How it is done:
as §1, §2

The next experiment deals with T5, murine ICOS (murine, UniProt Q9WVS0 21-200).
T5 sequence: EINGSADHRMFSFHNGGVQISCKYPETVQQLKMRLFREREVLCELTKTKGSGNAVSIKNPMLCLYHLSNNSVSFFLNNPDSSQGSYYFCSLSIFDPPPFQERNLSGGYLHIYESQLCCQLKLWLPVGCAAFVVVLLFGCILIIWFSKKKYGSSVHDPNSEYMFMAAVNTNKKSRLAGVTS
The experiment is described as follows: flow cytometry, % positive cells; murine ICOS on recombinant CHO cells according to the legend, on pre-activated murine splenocytes according to the example.

For experiment [9], the target named is T3, murine FAP. The experiment is described as follows: flow cytometry, cells carrying murine FAP not told.
Experiment [10] has as its target T1, human ICOS. The experiment is described as follows: cell-based or functional assay.
Experiment [11] addresses T6, recombinant monomeric human ICOS Fc(kih) Avi tag (human, UniProt P0DOX5 223-449 = IgG part, biotin on the Avi tag in the ligand-blocking and the SPR competition assays).
T6 construct: also called recombinant human ICOS; biotinylated human ICOS Fc(kih)
Kind of experiment: SPR competition on human ICOS Fc(kih); second injection 100 nM; competitor (row): Molecule 18. The procedure: (§3) Immobilization levels up to 600 resonance units (RU) were used. […] Bulk refractive index differences were corrected for by subtracting the response obtained on reference flow cell.
(§4) The SPR experiments were performed on a Biacore T200 at 25° C. with HBS-EP as running buffer (0.01 M HEPES pH 7.4, 0.15 M NaCl, 3 mM EDTA, 0.005% Surfactant P20, Biacore, Freiburg/Germany).

Experiment [12] deals with T1, human ICOS. The experiment is described as follows: flow cytometry, MFI(ICOSL+anti-ICOS)/MFI(anti-ICOS only)*100 at 120 nM; competitor ICOSL. The procedure: (§5) Briefly, cells were harvested, counted, checked for viability and re-suspended at 1 million cells per ml in FACS buffer (PBS with 0.1% BSA). […] Cells were washed again twice with cold PBS 0.1% BSA and then re-incubated and fixed for 20 min at 4° C. in the dark, using 75 μl of 1% PFA in FACS buffer per well. Fluorescence was analyzed by FACS using a FACS Fortessa (Software FACS Diva. Data was analyzed using GraphPadPrism 7.

Experiment [13] deals with T6, recombinant monomeric human ICOS …. The experiment is described as follows: SPR competition on human ICOS Fc(kih); second injection 100 nM; competitor (row): Molecule 20. How it is done: as §3, §4
The target is the same in experiment [14]. The experiment is described as follows: SPR (Biacore T200, 25 C), antibody captured on anti-mouse IgG, ICOS Fc(kih) 7.5-600 nM as analyte, 1:1 Langmuir fit. The procedure:
All SPR experiments were performed on a Biacore T200 at 25° C. with HBS-EP as running buffer (0.01 M HEPES pH 7.4, 0.15 M NaCl, 3 mM EDTA, 0.005% Surfactant P20, Biacore, Freiburg/Germany).
Setup 2: Anti-mouse IgG antibody (GE Healthcare, Chicago/US) was directly coupled on a CM5 chip at pH 5.0 using the standard amine coupling kit (Biacore, Freiburg/Germany). The immobilization level was approximately 5000 RU. […] The dissociation was monitored for 720 seconds. Bulk refractive index differences were corrected for by subtracting the response obtained on reference flow cell.

The target of experiment [15] is T1, human ICOS. The experiment is described as follows: flow cytometry on SR cells expressing human ICOS, PE-labelled secondary antibody, MFI. How it is done:
as §1
(§6) In addition, binding of the above molecules to human SR cells (ATCC® CRL-2262) was performed as described above apart from the following modifications: SR cells were re-suspended at 2 million cells per ml in FACS buffer (BD).
(§7) Fluorescence was analyzed by FACS using a FACS Fortessa (Software FACS Diva). Binding curves and EC50 values were obtained using GraphPadPrism 7.

Experiment [16] has as its target T1, human ICOS. Kind of experiment: flow cytometry, ICOS+ CHO cells, 120 nM anti-ICOS IgG pre-bound, then ICOSL (competitor) 120 nM. How it is done:
as §5

The target of experiment [17] is T1, human ICOS. Kind of experiment: flow cytometry, CHO cells expressing human ICOS. How it is done: as §1, §7
This is another data set of the same source.

The target in experiment [18] is T1, human ICOS. The experiment is described as follows: flow cytometry on CHO cells stably expressing human ICOS, PE-labelled secondary antibody, median fluorescence intensity (MFI). The procedure:
as §1, §7

The target in experiment [19] is T1, human ICOS. Kind of experiment: flow cytometry, ICOS+ CHO cells, 120 nM anti-ICOS IgG, no ICOSL. How it is done:
as §5

Experiment [20] deals with T1, human ICOS. Kind of experiment: flow cytometry, SR cells. The procedure: as §1, §6, §7
The source holds these as a separate data set.

The target of experiment [21] is T6, recombinant monomeric human ICOS …. The experiment is described as follows: SPR competition on human ICOS Fc(kih); second injection 100 nM; competitor (row): Molecule 8. The procedure:
as §3, §4

B1: Molecule 40, bispecific 2+1 anti-ICOS (009)/anti-FAP (4B9) huIgG1 P329GLALA kih (bispecific antibody)
heavy 1: EVRLDETGGGVVQPGRPMELSCVASGFTFSDYWMNWVRQSPEKGLEWVAQIRNKPYNYETYYSDSVKGRFTISRDDSKSRVYLQMNNLRAEDMGIYYCTWPRLRSSDWHFDVWGAGTTVTVSSASTKGPSVFPLAPSSKSTSGGTAALGCLVKDYFPEPVTVSWNSGALTSGVHTFPAVLQSSGLYSLSSVVTVPSSSLGTQTYICNVNHKPSNTKVDKKVEPKSCDKTHTCPPCPAPEAAGGPSVFLFPPKPKDTLMISRTPEVTCVVVDVSHEDPEVKFNWYVDGVEVHNAKTKPREEQYNSTYRVVSVLTVLHQDWLNGKEYKCKVSNKALGAPIEKTISKAKGQPREPQVCTLPPSRDELTKNQVSLSCAVKGFYPSDIAVEWESNGQPENNYKTTPPVLDSDGSFFLVSKLTVDKSRWQQGNVFSCSVMHEALHNHYTQKSLSLSPGGGGGSGGGGSGGGGSGGGGSEIVLTQSPGTLSLSPGERATLSCRASQSVTSSYLAWYQQKPGQAPRLLINVGSRRATGIPDRFSGSGSGTDFTLTISRLEPEDFAVYYCQQGIMLPPTFGQGTKVEIK
heavy 2: not shown
light: AIQMTQSPSSLSASLGGEVTITCKASQDINKNIAWYQHKPGRGPRLLIWYTSTLQTGIPSRFSGSGSGRDYSFTISNLEPEDFATYYCLQFDNLYTFGSGTKLEIRRTVAAPSVFIFPPSDEQLKSGTASVVCLLNNFYPREAKVQWKVDNALQSGNSQESVTEQDSKDSTYSLSSTLTLSKADYEKHKVYACEVTHQGLSSPVTKSFNRGEC
On to B1, for which the EC50 with human ICOS [1] came to 0.00174 nM; with human FAP [3] it was 0.00385 nM. Also, the “EC50 (read off the curve)” value was roughly 2 nM in the experiment with human ICOS [2] and roughly 4 nM with human FAP [4].

B2: Molecule 11, bispecific 1+1 head-to-tail anti-ICOS (1167)/anti-FAP (4B9) huIgG1 P329GLALA kih antibody (bispecific antibody)
heavy 1: DKTHTCPPCPAPEAAGGPSVFLFPPKPKDTLMISRTPEVTCVVVDVSHEDPEVKFNWYVDGVEVHNAKTKPREEQYNSTYRVVSVLTVLHQDWLNGKEYKCKVSNKALGAPIEKTISKAKGQPREPQVCTLPPSRDELTKNQVSLSCAVKGFYPSDIAVEWESNGQPENNYKTTPPVLDSDGSFFLVSKLTVDKSRWQQGNVFSCSVMHEALHNHYTQKSLSLSPGGGGGSGGGGSGGGGSGGGGSEIVLTQSPGTLSLSPGERATLSCRASQSVTSSYLAWYQQKPGQAPRLLINVGSRRATGIPDRFSGSGSGTDFTLTISRLEPEDFAVYYCQQGIMLPPTFGQGTKVEIK
heavy 2: not shown
light: DIQMTQSPSSVSASVGDRVTITCRASQGINNFLAWYQQKPGKAPKLLIYDASSLQSGVPSRFAGSGSGTDFTLTISSLQPEDFATYYCQQYNFYPLTFGGGTMVEIKRTVAAPSVFIFPPSDRKLKSGTASVVCLLNNFYPREAKVQWKVDNALQSGNSQESVTEQDSKDSTYSLSSTLTLSKADYEKHKVYACEVTHQGLSSPVTKSFNRGEC
notes: names and VH/VL of 4B9 are swapped; also called 1+1_HT; FAP-ICOS (HT)
As to B2, the “EC50 (read off the curve)” value in the experiment with murine FAP [5] was roughly 0.4 nM; with human FAP [8], roughly 1 nM. Besides, the EC50 stood at 1.15 nM in the experiment with human FAP [6], 4.17 nM with human ICOS [7] and 0.413 nM with murine FAP [9]. Further, the binding result with cynomolgus ICOS and in the experiment with murine ICOS was “binds” in each case.

B3: Molecule 14 (muIgG of 009) (antibody, V domains shown)
VH: EVRLDETGGGVVQPGRPMELSCVASGFTFSDYWMNWVRQSPEKGLEWVAQIRNKPYNYETYYSDSVKGRFTISRDDSKSRVYLQMNNLRAEDMGIYYCTWPRLRSSDWHFDVWGAGTTVTVSS
VL: AIQMTQSPSSLSASLGGEVTITCKASQDINKNIAWYQHKPGRGPRLLIWYTSTLQTGIPSRFSGSGSGRDYSFTISNLEPEDFATYYCLQFDNLYTFGSGTKLEIR
notes: Mouse IgG purified from hybridoma; also called ICOS (009); clone 009
Consider B3, for which, in the experiment with human ICOS [10], the “EC50 of activation of Jurkat-NFAT reporter cell line (luminescence)” value stood at 0.08 nM. In addition, the “binding of the second injection (0 = no binding; 1 = binding)” value amounted to 1 in experiment [11], 0 in [13] and 0 in [21]. In the experiment with human ICOS [12], the “Relative Binding (%)” value stood at 97.3%. The Kd in [14] came out at 2 nM. In experiment [14], the koff stood at 0.00014 s⁻¹. In experiment [14], the kon is 61000 M⁻¹ s⁻¹. Besides, the t1/2 in experiment [14] turned out to be 1.36 h. The “EC50 (read off the curve)” value is roughly 1 nM with human ICOS [15] and roughly 3 nM with human ICOS [18]. The “MFI (A488), IgG + ICOSL” value in the experiment with human ICOS [16] turned out to be 7000 MFI. For the same molecule, the concentration giving a half-maximal response (EC50) with human ICOS [17] was 0.00297 nM; with human ICOS [20], 0.0014 nM. The “MFI (A488), IgG only” value with human ICOS [19] turned out to be 7190 MFI.
